Article PMC10786891, “Massively parallel profiling of RNA-targeting CRISPR-Cas13d”

T1: EsCas13d, nuclease-dead (Eubacterium siraeum, UniProt B0MS50, R295A;H300A;R849A;H854A)
T1 sequence: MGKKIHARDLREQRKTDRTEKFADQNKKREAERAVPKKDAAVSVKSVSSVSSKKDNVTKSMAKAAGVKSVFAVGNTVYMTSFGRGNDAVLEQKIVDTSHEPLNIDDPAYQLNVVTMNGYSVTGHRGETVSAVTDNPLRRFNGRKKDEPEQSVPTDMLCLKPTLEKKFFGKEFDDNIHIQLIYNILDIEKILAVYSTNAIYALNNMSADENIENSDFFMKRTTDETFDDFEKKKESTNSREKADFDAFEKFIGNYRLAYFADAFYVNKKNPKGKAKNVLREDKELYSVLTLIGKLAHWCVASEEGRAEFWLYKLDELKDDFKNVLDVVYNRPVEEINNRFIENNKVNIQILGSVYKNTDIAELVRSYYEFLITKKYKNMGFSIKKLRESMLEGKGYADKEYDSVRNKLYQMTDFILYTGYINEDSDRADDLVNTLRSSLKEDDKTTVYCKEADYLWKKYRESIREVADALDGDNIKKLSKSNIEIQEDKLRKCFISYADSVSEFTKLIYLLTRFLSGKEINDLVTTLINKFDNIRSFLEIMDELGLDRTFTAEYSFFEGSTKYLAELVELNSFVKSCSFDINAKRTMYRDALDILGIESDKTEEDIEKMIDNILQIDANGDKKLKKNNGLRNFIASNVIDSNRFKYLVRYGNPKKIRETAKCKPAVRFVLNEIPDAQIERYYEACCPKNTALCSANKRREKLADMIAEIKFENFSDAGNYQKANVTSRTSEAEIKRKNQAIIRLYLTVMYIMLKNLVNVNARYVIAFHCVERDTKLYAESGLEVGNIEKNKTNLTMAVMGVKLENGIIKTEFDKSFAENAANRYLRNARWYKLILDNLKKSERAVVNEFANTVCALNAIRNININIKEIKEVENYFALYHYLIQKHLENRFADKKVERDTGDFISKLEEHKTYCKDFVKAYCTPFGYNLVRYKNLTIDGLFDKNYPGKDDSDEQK


biological target: T1, EsCas13d, nuclease-dead; assay: crRNA (strand 1, pre-loaded); Mg2+; 40 mM Tris-HCl pH 7.5, 150 mM NaCl, 6 mM MgCl2, 1 mM DTT, 0.1% Tween-20, 0.2 mg/ml BSA; 25 C; 10 min per concentration, then washed; conditions: tags: His6-TwinStrep-SUMO cleaved; N-terminal SNAP kept (SNAP-Surface 488); label: 3' end held by stalled T7 RNA polymerase

Binder	Kd [nM]
target 2 MT 5'PFS CGU 3'PFS ACU (mixed) RNA 1: CACCCGUGCAAAAUUGCAGGGGUCUAAAACCUUCUCCAAAUUGUUUCAUCCU RNA 2: GGGAAUGGAUCCACAUCUACGAAUUCCGUAGGAUGAAACAAUUUGGAGAAGACUAGAUCGGAAGAGCACACGU	23 ± 5
target 2 MT 5'PFS CGA 3'PFS AUC (mixed) RNA 1: CACCCGUGCAAAAUUGCAGGGGUCUAAAACCUUCUCCAAAUUGUUUCAUCCU RNA 2: GGGAAUGGAUCCACAUCUACGAAUUCCGAAGGAUGAAACAAUUUGGAGAAGAUCAGAUCGGAAGAGCACACGU	7.1 ± 1.4
target 2 MT 5'PFS GAU 3'PFS UCU (mixed) RNA 1: CACCCGUGCAAAAUUGCAGGGGUCUAAAACCUUCUCCAAAUUGUUUCAUCCU RNA 2: GGGAAUGGAUCCACAUCUACGAAUUCGAUAGGAUGAAACAAUUUGGAGAAGUCUAGAUCGGAAGAGCACACGU	56 ± 15
target 2 MT 5'PFS AUU 3'PFS UAU (mixed) RNA 1: CACCCGUGCAAAAUUGCAGGGGUCUAAAACCUUCUCCAAAUUGUUUCAUCCU RNA 2: GGGAAUGGAUCCACAUCUACGAAUUCAUUAGGAUGAAACAAUUUGGAGAAGUAUAGAUCGGAAGAGCACACGU	5.6 ± 0.4
target 2 MT 5'PFS GAC 3'PFS CGC (mixed) RNA 1: CACCCGUGCAAAAUUGCAGGGGUCUAAAACCUUCUCCAAAUUGUUUCAUCCU RNA 2: GGGAAUGGAUCCACAUCUACGAAUUCGACAGGAUGAAACAAUUUGGAGAAGCGCAGAUCGGAAGAGCACACGU	14.8 ± 3.2
target 2 MT 5'PFS GUA 3'PFS UCA (mixed) RNA 1: CACCCGUGCAAAAUUGCAGGGGUCUAAAACCUUCUCCAAAUUGUUUCAUCCU RNA 2: GGGAAUGGAUCCACAUCUACGAAUUCGUAAGGAUGAAACAAUUUGGAGAAGUCAAGAUCGGAAGAGCACACGU	10.3 ± 1.2
target 2 MT 5'PFS CGA 3'PFS AUU (mixed) RNA 1: CACCCGUGCAAAAUUGCAGGGGUCUAAAACCUUCUCCAAAUUGUUUCAUCCU RNA 2: GGGAAUGGAUCCACAUCUACGAAUUCCGAAGGAUGAAACAAUUUGGAGAAGAUUAGAUCGGAAGAGCACACGU	10.6 ± 3.3
target 2 MT 5'PFS CGC 3'PFS AUA (mixed) RNA 1: CACCCGUGCAAAAUUGCAGGGGUCUAAAACCUUCUCCAAAUUGUUUCAUCCU RNA 2: GGGAAUGGAUCCACAUCUACGAAUUCCGCAGGAUGAAACAAUUUGGAGAAGAUAAGAUCGGAAGAGCACACGU	4 ± 0.5
target 2 MT 5'PFS ACA 3'PFS ACA (mixed) RNA 1: CACCCGUGCAAAAUUGCAGGGGUCUAAAACCUUCUCCAAAUUGUUUCAUCCU RNA 2: GGGAAUGGAUCCACAUCUACGAAUUCACAAGGAUGAAACAAUUUGGAGAAGACAAGAUCGGAAGAGCACACGU	7.2 ± 2.3
target 2 MT 5'PFS GUA 3'PFS UCC (mixed) RNA 1: CACCCGUGCAAAAUUGCAGGGGUCUAAAACCUUCUCCAAAUUGUUUCAUCCU RNA 2: GGGAAUGGAUCCACAUCUACGAAUUCGUAAGGAUGAAACAAUUUGGAGAAGUCCAGAUCGGAAGAGCACACGU	29 ± 5
target 2 MT 5'PFS ACC 3'PFS UGC (mixed) RNA 1: CACCCGUGCAAAAUUGCAGGGGUCUAAAACCUUCUCCAAAUUGUUUCAUCCU RNA 2: GGGAAUGGAUCCACAUCUACGAAUUCACCAGGAUGAAACAAUUUGGAGAAGUGCAGAUCGGAAGAGCACACGU	7.7 ± 2.2
target 2 MT 5'PFS ACC 3'PFS UGU (mixed) RNA 1: CACCCGUGCAAAAUUGCAGGGGUCUAAAACCUUCUCCAAAUUGUUUCAUCCU RNA 2: GGGAAUGGAUCCACAUCUACGAAUUCACCAGGAUGAAACAAUUUGGAGAAGUGUAGAUCGGAAGAGCACACGU	18 ± 6
target 2 MT 5'PFS ACA 3'PFS ACU (mixed) RNA 1: CACCCGUGCAAAAUUGCAGGGGUCUAAAACCUUCUCCAAAUUGUUUCAUCCU RNA 2: GGGAAUGGAUCCACAUCUACGAAUUCACAAGGAUGAAACAAUUUGGAGAAGACUAGAUCGGAAGAGCACACGU	6.3 ± 1.3
target 2 MT 5'PFS UUG 3'PFS CCU (mixed) RNA 1: CACCCGUGCAAAAUUGCAGGGGUCUAAAACCUUCUCCAAAUUGUUUCAUCCU RNA 2: GGGAAUGGAUCCACAUCUACGAAUUCUUGAGGAUGAAACAAUUUGGAGAAGCCUAGAUCGGAAGAGCACACGU	~80
target 2 MT 5'PFS ACC 3'PFS UGA (mixed) RNA 1: CACCCGUGCAAAAUUGCAGGGGUCUAAAACCUUCUCCAAAUUGUUUCAUCCU RNA 2: GGGAAUGGAUCCACAUCUACGAAUUCACCAGGAUGAAACAAUUUGGAGAAGUGAAGAUCGGAAGAGCACACGU	8 ± 1.4
target 2 MT 5'PFS ACC 3'PFS UAA (mixed) RNA 1: CACCCGUGCAAAAUUGCAGGGGUCUAAAACCUUCUCCAAAUUGUUUCAUCCU RNA 2: GGGAAUGGAUCCACAUCUACGAAUUCACCAGGAUGAAACAAUUUGGAGAAGUAAAGAUCGGAAGAGCACACGU	~12
target 2 MT 5'PFS GAG 3'PFS ACG (mixed) RNA 1: CACCCGUGCAAAAUUGCAGGGGUCUAAAACCUUCUCCAAAUUGUUUCAUCCU RNA 2: GGGAAUGGAUCCACAUCUACGAAUUCGAGAGGAUGAAACAAUUUGGAGAAGACGAGAUCGGAAGAGCACACGU	6.7 ± 0.32
target 2 MT 5'PFS GAG 3'PFS ACU (mixed) RNA 1: CACCCGUGCAAAAUUGCAGGGGUCUAAAACCUUCUCCAAAUUGUUUCAUCCU RNA 2: GGGAAUGGAUCCACAUCUACGAAUUCGAGAGGAUGAAACAAUUUGGAGAAGACUAGAUCGGAAGAGCACACGU	8.1 ± 0.7
target 2 MT 5'PFS AUU 3'PFS AAU (mixed) RNA 1: CACCCGUGCAAAAUUGCAGGGGUCUAAAACCUUCUCCAAAUUGUUUCAUCCU RNA 2: GGGAAUGGAUCCACAUCUACGAAUUCAUUAGGAUGAAACAAUUUGGAGAAGAAUAGAUCGGAAGAGCACACGU	7.1 ± 1.4
target 2 MT 5'PFS AUU 3'PFS AAA (mixed) RNA 1: CACCCGUGCAAAAUUGCAGGGGUCUAAAACCUUCUCCAAAUUGUUUCAUCCU RNA 2: GGGAAUGGAUCCACAUCUACGAAUUCAUUAGGAUGAAACAAUUUGGAGAAGAAAAGAUCGGAAGAGCACACGU	4.7 ± 0.5
target 2 MT 5'PFS UUG 3'PFS CCG (mixed) RNA 1: CACCCGUGCAAAAUUGCAGGGGUCUAAAACCUUCUCCAAAUUGUUUCAUCCU RNA 2: GGGAAUGGAUCCACAUCUACGAAUUCUUGAGGAUGAAACAAUUUGGAGAAGCCGAGAUCGGAAGAGCACACGU	16.8 ± 1.4
target 2 MT 5'PFS CGC 3'PFS AUG (mixed) RNA 1: CACCCGUGCAAAAUUGCAGGGGUCUAAAACCUUCUCCAAAUUGUUUCAUCCU RNA 2: GGGAAUGGAUCCACAUCUACGAAUUCCGCAGGAUGAAACAAUUUGGAGAAGAUGAGAUCGGAAGAGCACACGU	5 ± 0.6
target 2 MT 5'PFS GAG 3'PFS ACC (mixed) RNA 1: CACCCGUGCAAAAUUGCAGGGGUCUAAAACCUUCUCCAAAUUGUUUCAUCCU RNA 2: GGGAAUGGAUCCACAUCUACGAAUUCGAGAGGAUGAAACAAUUUGGAGAAGACCAGAUCGGAAGAGCACACGU	14 ± 4
target 2 MT 5'PFS GAG 3'PFS ACA (mixed) RNA 1: CACCCGUGCAAAAUUGCAGGGGUCUAAAACCUUCUCCAAAUUGUUUCAUCCU RNA 2: GGGAAUGGAUCCACAUCUACGAAUUCGAGAGGAUGAAACAAUUUGGAGAAGACAAGAUCGGAAGAGCACACGU	9.6 ± 1.6
target 2 MT 5'PFS CGC 3'PFS AUU (mixed) RNA 1: CACCCGUGCAAAAUUGCAGGGGUCUAAAACCUUCUCCAAAUUGUUUCAUCCU RNA 2: GGGAAUGGAUCCACAUCUACGAAUUCCGCAGGAUGAAACAAUUUGGAGAAGAUUAGAUCGGAAGAGCACACGU	5 ± 0.8
target 2 MT 5'PFS CGC 3'PFS AUC (mixed) RNA 1: CACCCGUGCAAAAUUGCAGGGGUCUAAAACCUUCUCCAAAUUGUUUCAUCCU RNA 2: GGGAAUGGAUCCACAUCUACGAAUUCCGCAGGAUGAAACAAUUUGGAGAAGAUCAGAUCGGAAGAGCACACGU	4.6 ± 0.6
target 1 A1G,C2G (mixed) RNA 1: CACCCGUGCAAAAAUGCAGGGGUCUAAAACUGAGCGGAUAACCUCUCUAUGG RNA 2: GGGAAUGGAUCCACAUCUACGAAUUCGUACCAUAGAGAGGUUAUCCGCUGGCCGAGAUCGGAAGAGCACACGU	5.54 ± 0.24
target 1 insA 3' of 7,insG 3' of 3 (mixed) RNA 1: CACCCGUGCAAAAAUGCAGGGGUCUAAAACUGAGCGGAUAACCUCUCUAUGG RNA 2: GGGAAUGGAUCCACAUCUACGAAUUCGUACCAUAGAGAGGUUAUCACGCUGCACCGAGAUCGGAAGAGCACACGU	4.65 ± 0.13
